In the experiment the target is viral envelope glycoprotein gp120 of human immunodeficiency virus (HIV-1) (HIV-1). The experiment can be described thus: cell-based or functional assay.

B1: CVN Gln50 deletion mutant (ΔQ50-CVN), obligate domain-swapped dimer of cyanovirin (protein)
chain: LGKFSQTCYNSAIQGSVLTSTCERTNGGYNTSSIDLNSVIENVDGSLKWPSNFIETCRNTQLAGSSELAAECKTRAQQFVSTKINLDDHIANIDGTLKYE
For B1, the IC50 in quantitative vaccinia virus-based HIV-1 fusion assay was determined as 9 nM and the average KD from non-linear least squares best fitting of HIV-1 fusion assay titration data to a two-independent site model was 22 nM.

B2: dimeric wild-type CVN (protein)
chain: LGKFSQTCYNSAIQGSVLTSTCERTNGGYNTSSIDLNSVIENVDGSLKWQPSNFIETCRNTQLAGSSELAAECKTRAQQFVSTKINLDDHIANIDGTLKYE
Regarding B2, the IC50 in quantitative vaccinia virus-based HIV-1 fusion assay stood at 9 nM and the average KD from non-linear least squares best fitting of HIV-1 fusion assay titration data to a two-independent site model was found to be 21 nM.

B3: monomeric wild-type CVN (protein)
chain: B2 chain
Take B3: the IC50 in quantitative vaccinia virus-based HIV-1 fusion assay is 32 nM and the average KD from non-linear least squares best fitting of HIV-1 fusion assay titration data to a two-independent site model was 67 nM.

Source of the values: US20050090643A1.
